Data: the supplement of paper PMC10126150
± gives the standard deviation of the averaged measurements.

Tested on: ATP
Test: switch fluorescence ratio, 500 uM ATP over buffer (Cy3 cluster intensity, sum of 5 cycles each) (fold (ratio)); higher = stronger signal-on switching upon ATP binding; sequences stand for … in TCGTCGGCAGCGTCAGATGTGTATAAGAGACAGTTTTTTTTTTTTTTTTTTTTTTTTT…TC
Details: aptamer strand: ATP DNA aptamer (quencher-CACCTGGGGGAGTATTGCGGAGGAAGG + anchor), 100 nM annealed; ATP concentration: 500 uM
How it was run: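 Imaging in selection buffer was followed by imaging after 15 min with 500 uM ATP at 22 °C, for Cy3-labelled switching-strand clusters annealed to 100 nM quencher-labelled ATP aptamer on a modified Illumina MiSeq flow-cell. Five of these buffer/ATP cycles ran, separated by NaOH stripping and re-annealing. The fluorescence ratio per cluster is summed target-cycle over summed buffer-cycle Cy3 intensity, averaged per switch-domain sequence; clusters outside 100-1000 RFU were removed.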
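Further: ATP exposure 15 min at 22 °C before imaging.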

Sequence	switch fluorescence ratio
GTAGTAAGCG	0.953 ± 0.045
GTAGTAGATG	1.013 ± 0.0097
GTAGTAGCGT	0.969 ± 0.022
GTAGTGGCAG	0.992 ± 0.049
GTAGTTGATG	0.9665 ± 0.0026
GTAGTTTATG	0.996 ± 0.014
GTAGTTTGAG	0.996 ± 0.015
GTAGTTTTTT	1.04 ± 0.032
GTATAAAGGC	1.01 ± 0.047
GTATAACCCG	0.992 ± 0.026
GTATAAGGTT	0.98006 ± 0.00074
GTATAATGGG	0.973 ± 0.019
GTATGAAATC	1.02 ± 0.036
GTATGAAGAG	0.995 ± 0.023
GTATGAGTAG	0.992 ± 0.035
GTATGCGTGC	1.04 ± 0.017
GTATGCGTTG	0.989 ± 0.056
GTATGGAGCG	0.981 ± 0.019
GTATGGCTAG	0.978 ± 0.029
GTATGGGAAA	1.04 ± 0.054
GTATGGGGCA	1 ± 0.029
GTATGGGGCG	1.01 ± 0.081
GTATGGGGGC	0.974 ± 0.063
GTATGGGGGT	0.963 ± 0.024
GTATGGGTGT	0.9711 ± 0.0078

Sequence	switch fluorescence ratio
GTATGGTGGG	1.02 ± 0.04
GTATGTAAT	0.997 ± 0.011
GTATGTCGGT	0.997 ± 0.051
GTATTAATTT	0.9833 ± 0.0046
GTATTAGGCG	1.02 ± 0.02
GTATTATTTT	0.979 ± 0.024
GTATTGGTTG	0.983 ± 0.026
GTATTTACAT	0.9862 ± 0.0048
GTCAATGGGA	1 ± 0.029
GTCAATGGTG	0.9901 ± 0.0074
GTCAATTGAT	0.9924 ± 0.0074
GTCAATTTGT	1.02 ± 0.018
GTCACAACGG	0.999 ± 0.024
GTCACACTAT	1.02 ± 0.034
GTCACAGGCT	1.02 ± 0.026
GTCACAGTTG	1.015 ± 0.0045
GTCAGAAATG	0.982 ± 0.013
GTCAGGAAGT	1.02 ± 0.016
GTCAGGGTTG	1 ± 0.048
GTCAGTAGGC	0.991 ± 0.017
GTCATAGATT	0.989 ± 0.011
GTCATAGCGT	0.977 ± 0.016
GTCATAGGGG	1.01 ± 0.026
GTCATAGTTC	0.966 ± 0.015
GTCATCAGGT	1.008 ± 0.0058

Sequence	switch fluorescence ratio
GTCATGGTAG	1.02 ± 0.031
GTCATTGATT	1.01 ± 0.011
GTCCAAAAAC	1.15 ± 0.038
GTCCACCTAC	1.38 ± 0.015
GTCCATCCCA	1.001 ± 0.009
GTCCCGACTT	1.01 ± 0.013
GTCCGGGGCT	1.04 ± 0.036
GTCCGGGGGT	1.07 ± 0.11
GTCCTTATTT	1.08 ± 0.022
GTCCTTGATA	1.01 ± 0.024
GTCGAGGATG	1.018 ± 0.0049
GTCGCGGGGT	1.027 ± 0.0036
GTCGCTGTGG	1.04 ± 0.0021
GTCGGAGCGA	1.83 ± 0.57
GTCGGAGGGG	0.982 ± 0.043
GTCGGGAAGT	0.958 ± 0.024
GTCGGGGCTG	0.972 ± 0.049
GTCGGGGGTG	0.983 ± 0.041
GTCGGTTTTT	0.972 ± 0.022
GTCGTGCGTA	1.03 ± 0.099
GTCTAAATCG	0.981 ± 0.015
GTCTAAGGAA	0.993 ± 0.016
GTCTACATTG	0.997 ± 0.01
GTCTAGAAAG	0.985 ± 0.016
GTCTCGTTCC	1.09 ± 0.14

Sequence	switch fluorescence ratio
GTCTGAACGT	0.995 ± 0.081
GTCTGGCAGT	1.01 ± 0.043
GTCTGTATGT	1.015 ± 0.0028
GTCTGTGGGA	0.9998 ± 0.0091
GTCTGTTCGC	1.02 ± 0.085
GTCTTATATT	1.01 ± 0.06
GTCTTCACGG	0.999 ± 0.01
GTCTTCATGG	0.989 ± 0.02
GTCTTTGTTA	1.01 ± 0.022
GTGAAAAATT	0.9862 ± 0.0086
GTGAAAGTTT	0.998 ± 0.062
GTGAAATAGG	0.981 ± 0.014
GTGAAATTGT	1.01 ± 0.034
GTGAACGGCG	1.06 ± 0.014
GTGAATGGGG	0.969 ± 0.042
GTGAATTGGG	1.03 ± 0.03
GTGACAGGGG	1.05 ± 0.033
GTGACCCCTA	1.13 ± 0.063
GTGACGAGTG	0.993 ± 0.047
GTGACTCCGA	1.78 ± 0.12
GTGACTTTGT	1 ± 0.023
GTGACTTTTA	1.01 ± 0.035
GTGAGAGCAT	1.05 ± 0.028
GTGAGAGGGT	0.998 ± 0.029
GTGAGATATT	0.989 ± 0.043

Sequence	switch fluorescence ratio
GTGAGCATGT	1.01 ± 0.024
GTGAGCGACG	0.965 ± 0.027
GTGAGGGAAC	0.9729 ± 0.0052
GTGAGGGACG	0.999 ± 0.081
GTGAGGGTCG	1.01 ± 0.011
GTGAGGTGCA	1.01 ± 0.052
GTGAGTAAGC	1 ± 0.0035
GTGAGTCTGT	0.9891 ± 0.001
GTGAGTTGGG	1.01 ± 0.014
GTGATAAAGG	1.01 ± 0.03
GTGATAAGGT	1 ± 0.021
GTGATAGATG	1.013 ± 0.01
GTGATCTATA	0.99 ± 0.025
GTGATTCGGG	0.972 ± 0.013
GTGATTGGCT	0.978 ± 0.016
GTGATTTATT	0.988 ± 0.019
GTGATTTTAT	0.969 ± 0.028
GTGATTTTTT	1.01 ± 0.019
GTGCATGCGT	0.998 ± 0.03
GTGCCAGGAT	1.03 ± 0.052
GTGCCTGATG	1.05 ± 0.046
GTGCGAAATC	1.25 ± 0.033
GTGCGAACTT	1.015 ± 0.0028
GTGCGAGAAC	1.01 ± 0.025
GTGCGAGAGC	1.01 ± 0.043

Sequence	switch fluorescence ratio
GTGCGATTTA	0.992 ± 0.034
GTGCGCAGAA	0.988 ± 0.015
GTGCGCCGGT	1.02 ± 0.036
GTGCGGTGGC	1.04 ± 0.038
GTGCTAAGAG	0.969 ± 0.043
GTGCTATAGT	1.031 ± 0.0018
GTGCTTAATT	1 ± 0.05
GTGCTTCGGT	0.948 ± 0.026
GTGCTTTTTT	0.993 ± 0.013
GTGGAACATT	1.02 ± 0.049
GTGGAACGTA	0.976 ± 0.015
GTGGAAGTCC	1 ± 0.022
GTGGAAGTGG	1.02 ± 0.034
GTGGAATATT	1.04 ± 0.063
GTGGACCGGA	1.06 ± 0.012
GTGGACTTGC	0.973 ± 0.042
GTGGATGGAC	1.03 ± 0.022
GTGGATTGGA	1.05 ± 0.024
GTGGCAAAGA	0.993 ± 0.023
GTGGCAAGTT	0.97 ± 0.017
GTGGCACG	1.01 ± 0.025
GTGGCGAGGG	0.996 ± 0.0078
GTGGCGCGGA	0.959 ± 0.013
GTGGCGGGGA	1.02 ± 0.038
GTGGCGGTG	0.985 ± 0.014

Sequence	switch fluorescence ratio
GTGGCTATCG	0.993 ± 0.025
GTGGCTGCGT	0.9776 ± 0.0063
GTGGCTTGTG	1 ± 0.029
GTGGGAATTT	0.9823 ± 0.0081
GTGGGACGGG	1.03 ± 0.056
GTGGGAGGCT	1 ± 0.024
GTGGGATTT	0.995 ± 0.022
GTGGGCTTGT	0.979 ± 0.048
GTGGGGAATC	1.02 ± 0.082
GTGGGGAGAG	0.9602 ± 0.0078
GTGGGGCACG	0.9933 ± 0.0095
GTGGGGCAGC	0.945 ± 0.015
GTGGGGCATT	0.9905 ± 0.0086
GTGGGGCGGT	0.9832 ± 0.006
GTGGGGGAAT	1 ± 0.011
GTGGGGGGAG	1 ± 0.026
GTGGGGGGCT	0.984 ± 0.029
GTGGGGGGGA	1.01 ± 0.023
GTGGGGGGGG	0.995 ± 0.038
GTGGGGGTAT	1.05 ± 0.15
GTGGGGTATT	0.977 ± 0.028
GTGGGGTCCG	0.99 ± 0.046
GTGGGGTCGT	0.926 ± 0.045
GTGGGTGGGT	1 ± 0.025
GTGGGTTGGT	1.008 ± 0.0054

Sequence	switch fluorescence ratio
GTGGTATCAT	0.978 ± 0.03
GTGGTATGCA	1.02 ± 0.074
GTGGTCGCTG	0.982 ± 0.019
GTGGTGTGGT	0.982 ± 0.011
GTGGTTCCTG	0.967 ± 0.015
GTGGTTCGGG	0.975 ± 0.029
GTGGTTGGAA	0.963 ± 0.022
GTGGTTTTAT	0.979 ± 0.013
GTGGTTTTGA	0.9832 ± 0.0064
GTGTAAAGGC	0.96 ± 0.021
GTGTAAGACC	1.03 ± 0.027
GTGTAATGGT	1.03 ± 0.021
GTGTAATTAT	0.9697 ± 0.0055
GTGTACCGGA	0.9813 ± 0.0017
GTGTACTCAT	1.01 ± 0.035
GTGTATAGAG	0.99 ± 0.051
GTGTATAGTT	1.02 ± 0.056
GTGTATTAGT	0.9656 ± 0.003
GTGTATTATT	0.976 ± 0.02
GTGTATTGGT	0.983 ± 0.024
GTGTCAGTTG	0.93646 ± 0.00087
GTGTCCGGGC	0.979 ± 0.025
GTGTGAAAAC	1.02 ± 0.02
GTGTGAGATT	1.02 ± 0.024
GTGTGAGTAG	1.02 ± 0.039
